Reference: paper PMC9170038, “Crowdsourced RNA design discovers diverse, reversible, efficient, self-contained molecular switches”

B1: Eterna 5997882 (Exclusion 5) (ssRNA)
RNA: CAGCCCUGAGGAUAUCCCUACUUGUACAUGAGGAUCACCCAUGUCCUCCUCCGGGCUUCGGGAGAAGGCAGGUCUC
B2: Eterna 12785 (Exclusion 4) (ssRNA)
RNA: CUCGUGUGAGGAUAUCUAUUCCACGGACGGGAGUCUUGAAGAGAGAAGGCACAUGAGGAUCACCCAUGUAAUAA
B3: Eterna 5860431 (Same State NG 1) (ssRNA)
RNA: UAAUGUUAGCGAGGAUAUCGUUUAUUGAAGUUACGAGAAGGCGCUCUUCUUACAUGAGGAUCACCCAUGUCUGUUUUGCAUGAU
B4: Eterna 7755473 (Exclusion - Arginine A) (ssRNA)
RNA: UCCUUUGUUGCCAGUGAUGUUGGACAGGAAGGAGCGGGCAUAAGCCCAGGUAGGUCGCCUGUCAACUUUCUUAUAGCCCGAAGGU
B5: Eterna 5921244 (Exclusion NG 2) (ssRNA)
RNA: AUUAUAUAGGAAGGAUAUAGAAUAUUAUUUUAACAUGAGGAUCACCCAUGUAACCUUAUGUGUAGCUAGAAGGUCCAUUUGUUA
B6: Eterna 6395988 (Inverted Same State NG 2) (ssRNA)
RNA: GUCUGAUUGUAGAAGGUACUUAAUACUCAUGUAACAUGAGGAUCACCCAUGUAUCAACAAUAUUGUAAGGAUAUACAAAUCUCA
B7: Eterna 7740407 (Exclusion - Tryptophan A) (ssRNA)
RNA: AAGCAGUCACUCGAAACCAUCGAAGAUGGACGAGGACCGGUACGGCCGCCACUCGGAGUGAUGUUCCGAAGACUGCAAAAUAAAA
B8: Eterna 15548 (Exclusion 2) (ssRNA)
RNA: GUGUAGAUAGGAUAUGCUUUGAGCUUAUGAGAGUAUGCUCGACAUGAGGAUCACCCAUGUAGAAGGGUUUACAC
B9: Eterna 6444393 (Inverted Same State NG 3) (ssRNA)
RNA: UGUUUUGUACAUGAGGAUCACCCAUGUUAAUAUGUGGUAGUCAGAAGGCAUUGUUUGAGAUAUUAUGAGGAUAUGAUUAGUCUG
B10: Eterna 6113948 (Same State NG 3) (ssRNA)
RNA: UGUUGUGAACAGAACAUGAGGAUCACCCAUGUGCACUCGUGUAAGGAUAUACAAUCGUAUGGAAAGUAGAAGGUACUAAUUAUG
B11: Eterna 6036671 (Sensor, turn-off variant 1) (ssRNA)
RNA: GUCCUGGAUUAUCACAAGCACAUGAGGAUCACCCAUGUCAUGGGUGGAUCCCUAAAUGGGUAUUCUGCUCGUCUUAU
B12: Eterna 5982822 (Brourd's mod of Exclusion 4) (ssRNA)
RNA: GGAUCGAAUGUGAGGAUAUGCUGGUCCUUGGAUCAGCAGAAGGCACAUGAGGAUCACCCAUGUGGUAACGGUCC
B13: Eterna 7666983 (Same State - Theophylline A) (ssRNA)
RNA: AAUAACAUGAGGAUCACCCAUGUAAAAGAUACCAGGGUGAUGAUCCUCCCUUGGCAGCUUACAGCUGAUCAAUAAGAUCGGCUGA
B14: Eterna 6436678 (Exclusion NG 2) (ssRNA)
RNA: AAAUUAAGAAGAGGAUAUUGACAUGAGGAUCACCCAUGUAUUUGGGAGUGUUUACUGAAUUCUUACGAGAAGGCUUACGAACUU
B15: Eterna 6124659 (Same State NG 3) (ssRNA)
RNA: GAAUAUUCGUUGAACAUGAGGAUCACCCAUGUAACUUGACAUGAGGAUAUGGAUUCUAAUUGGAUCCAGAAGGUAUGAAUAUUC
B16: Eterna 7678744 (Same State - Tryptophan A) (ssRNA)
RNA: ACAGGAUCGAAAGAUCCUGAGCAGUCAAAACGAGGACCGGUACGGCCGCCACUCGAAUAAGAGAGUGAUGUUCUCGACUGCAAAA
B17: Eterna 5956610 (Same State NG 2) (ssRNA)
RNA: UGGCUGAGUCGAGGAUAUGAUCUUCAUAUAAUAACAUGAGGAUCACCCAUGUAUAAUUACAUGGAUCAGAAGGCGACUCAGCCA
B18: Eterna 13817 (Sensor v3, turn-off variant 2) (ssRNA)
RNA: UGUACUAUGCGUGCUGACAUGCGUAGUGCAGCAGGUGUAACAUGAGGAUCACCCAUGUCCUCAUUUGCUCGUCUUAA
B19: Eterna 7745661 (Exclusion - FMN B) (ssRNA)
RNA: AGACUACUGAUAGGAUAUAACAUCCUAGUCGUAUACCGAAAGGUAUACGAUUCCCUUCUAGUGAUGUUAGAAGGGUCGGUAGUCA
B20: Eterna 6120996 (Same State NG 1) (ssRNA)
RNA: GGUCCAGCAUGAGGAUAUGGCACCUUAUUGGUGCCAGAAGGCAUGUCUAUAGACAUGAGGAUCACCCAUGUAAUAAAUUGGACC
B21: Eterna 6444365 (Inverted Same State NG 3) (ssRNA)
RNA: AGAUUUGUACAUGAGGAUCACCCAUGUUAAUAGGUGGUUGUCAGAAGGCAUUAUUAGAGUUUUAAUGAGGAUAUGAAUUUACAA
B22: Eterna 7690517 (Same State - Theophylline B) (ssRNA)
RNA: AAUUUAUUAUCUGAUACCAGACUUUUUCUUGUUUAUAAGUCAAGUGAUGUUUGACUUUUAGUCCCUUGGCAGCAGUAUUUUUUAA
B23: Eterna 1200 (Exclusion - Tryptophan A) (ssRNA)
RNA: UGGAGUGCCUGGUCGUCACUAUGCCAACCACGAGGACCGGUACGGCCGCCACUCGUGAGGGAUAUUCAGAAAGUGAUGUUUUUUG
B24: Eterna 7733059 (Exclusion - Tryptophan B) (ssRNA)
RNA: GGAGUCGGCACGGCCGCCACUGCGGUGGUGUGACAUGAGGAUCACCCAUGUUGUCAUGCGGCCCUUAGGACCGGGUGGCGGUUCC
B25: Eterna 7636321 (Exclusion - Theophylline B) (ssRNA)
RNA: CAUUAUGUAACUGAUACCAGUGUACUGACAUGAGGAUCACCCAUGUUGGGUUUUGUUGUACACCCUUGGCAGCAGAAUCAUAAUG
B26: Eterna 7639661 (Exclusion - Theophylline B) (ssRNA)
RNA: AUUUAUAGUUGUGAUACCAGACUUACAUGAGGAUCACCCAUGUUACUUAAAUGUUUUGAUGUCCCUUGGCAGCACUGUUUUUUUA
B27: Eterna 7618834 (Exclusion - Theophylline A) (ssRNA)
RNA: AGACAUGAGGAUCACCCAUGUAGUAUGGAUACCAGAUCCAGAUUUAUCCCUUGGCAGCUGUGGUACAGCGUUGGAUCGCUCCUAG
B28: Eterna 7629678 (Same State - Theophylline A) (ssRNA)
RNA: UUCUACAUGAGGAUCACCCAUGUAAACGAUACCAGACGAGUAUUAGUCCCUUGGCAGCGUAGAGUGUCGUUUAUAGUAGGAUACC
B29: Eterna 7687214 (Same State - Theophylline B) (ssRNA)
RNA: UCGUGUAUAUCGGAUACCAGUGAAAACGAUACAUGAGGAUCACCCAUGUGAGUUGAUGUACACCCUUGGCAGCUGUAUAUAUCUA
B30: Eterna 10111 (Sensor for hsa-mir-208a version 2) (ssRNA)
RNA: AAUUAUUAACAUGAGGAUCACCCAUGUAAAACAUGGAUUAACAAGCCUUUUCGUUUUUGCUCGUCUUAUAUUAUUAA
B31: Eterna 15995 (Sensor v3, turn-off variant 1) (ssRNA)
RNA: UAUUAGCAAGCAAGGUCCCACAUGAGGAUCACCCAUGUGCUCGUCUUAUAAGGUACUGUGACGAAAGUCACGGUACC
B32: Eterna 10232 (Sensor for hsa-mir-208a) (ssRNA)
RNA: AACCAACAAAUAAAACAAGCGUGCUCGUCACAUGAGGAUCACCCAUGUUUAAGCGCUAUUCCUACUUCCUCAGCGCC

These binders were tested against T1, MS2 coat protein, dlFG mutant (Escherichia phage MS2, UniProt P03612, del68-81insG) (assay: 4 mM Mg2+; FMN 200 uM; RNA-MaP array; 100 mM Tris-HCl pH 7.5, 80 mM KCl, 4 mM MgCl2, 0.1 mg/mL BSA, 1 mM DTT, 0.01 mg/mL yeast tRNA, 0.01% Tween-20; protein 1.5 nM to 3 uM; 37 C (Table S3)). Details: chain copies: 2; label: tethered by stalled RNA polymerase.

In the case of B1, the Kd is reported as 18.5 nM.

The binders below were run against T1, MS2 coat protein, dlFG mutant (assay: 4 mM Mg2+; no ligand; RNA-MaP array; 100 mM Tris-HCl pH 7.5, 80 mM KCl, 4 mM MgCl2, 0.1 mg/mL BSA, 1 mM DTT, 0.01 mg/mL yeast tRNA, 0.01% Tween-20; protein 1.5 nM to 3 uM; 37 C (Table S3)). Details: chain copies: 2; label: tethered by stalled RNA polymerase.

Going from B2 to B3, the Kd falls from 166 nM to 68.7 nM (2.4-fold).

Going from B4 to B5, the Kd falls from greater than 3000 nM to 224 nM.

Compared with B6, UUUAAUGAGGGAACUGCUUAGUUU (ssRNA) [Eterna 5 (OligoOldBControl)] is higher in Kd: 576 nM for the first, greater than 3000 nM for the second.

Compared with B7, B8 is lower in Kd: greater than 3000 nM for the first, 88.3 nM for the second.

Compared with B9, B10 is 2.2-fold higher in Kd: 60.6 nM for the first, 133 nM for the second.

First: B11
Second: B12
The Kd of the first is 2.1-fold higher: 481 nM for the first, 233 nM for the second.

B13 and B14 are within 1.5-fold of each other in Kd: 192 nM for the first, 223 nM for the second.

Compared with UUUGUUGCCAGUGAUGUUGGCAACUUU (ssRNA) [Eterna 11 (K4-alt7bp_control)], B15 is lower in Kd: greater than 3000 nM for the first, 75.8 nM for the second.

First: B16
Second: B17
The Kd of the first is higher: greater than 3000 nM for the first, 662 nM for the second. The second binds more tightly here.

Going from B18 to B19, the Kd rises from 386 nM to greater than 3000 nM. The first binds more tightly here.

First: B20
Second: B21
The Kd of the first is 1.5-fold lower: 646 nM for the first, 974 nM for the second. The first binds more tightly here.

B22 and B23 cannot be ordered by Kd: greater than 3000 nM for the first, greater than 3000 nM for the second.

The binders below were run against T1, MS2 coat protein, dlFG mutant (assay: 4 mM Mg2+; L-tryptophan 2.4 mM; RNA-MaP array; 100 mM Tris-HCl pH 7.5, 80 mM KCl, 4 mM MgCl2, 0.1 mg/mL BSA, 1 mM DTT, 0.01 mg/mL yeast tRNA, 0.01% Tween-20; protein 1.5 nM to 3 uM; 37 C (Table S3)). Details: chain copies: 2; label: tethered by stalled RNA polymerase.

B24 gave a Kd of 57 nM.

What follows are binders tested against T1, MS2 coat protein, dlFG mutant (assay: 4 mM Mg2+; theophylline 2 mM; RNA-MaP array; 100 mM Tris-HCl pH 7.5, 80 mM KCl, 4 mM MgCl2, 0.1 mg/mL BSA, 1 mM DTT, 0.01 mg/mL yeast tRNA, 0.01% Tween-20; protein 1.5 nM to 3 uM; 37 C (Table S3)). Details: chain copies: 2; label: tethered by stalled RNA polymerase.

First: B25
Second: B26
The Kd of the first is 6.5-fold higher: 90.9 nM for the first, 14 nM for the second.

B27 and B28 are within 1.5-fold of each other in Kd: 29.4 nM for the first, 28.4 nM for the second.

With B29 the Kd was 15.1 nM.

The binders below were run against T1, MS2 coat protein, dlFG mutant (assay: 4 mM Mg2+; miR-208a RNA 100 nM (AU…UUGU); RNA-MaP array; 100 mM Tris-HCl pH 7.5, 80 mM KCl, 4 mM MgCl2, 0.1 mg/mL BSA, 1 mM DTT, 0.01 mg/mL yeast tRNA, 0.01% Tween-20; protein 1.5 nM to 3 uM; 37 C (Table S3)). Details: chain copies: 2; label: tethered by stalled RNA polymerase.

First: B30
Second: B31
The Kd of the first is 3.2-fold lower: 135 nM for the first, 426 nM for the second.

Binder B32 has a Kd of 30.4 nM.
